Laboratory results published in patent US20260144854A1 (UNIVERSITY OF CHICAGO, published 2026).

T1: full length recombinant CD95 protein (FL-CD95), P25445
T1 chain: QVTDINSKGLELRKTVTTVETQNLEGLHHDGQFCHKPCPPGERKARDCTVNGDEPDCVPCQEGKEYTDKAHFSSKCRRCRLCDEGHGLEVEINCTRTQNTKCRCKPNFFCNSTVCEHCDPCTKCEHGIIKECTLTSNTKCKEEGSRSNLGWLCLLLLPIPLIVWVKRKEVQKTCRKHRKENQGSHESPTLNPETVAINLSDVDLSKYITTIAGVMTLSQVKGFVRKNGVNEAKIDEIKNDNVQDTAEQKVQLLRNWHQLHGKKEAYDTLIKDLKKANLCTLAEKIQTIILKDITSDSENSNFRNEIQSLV

T2: human neutrophil elastase (ELANE)
T2 chain: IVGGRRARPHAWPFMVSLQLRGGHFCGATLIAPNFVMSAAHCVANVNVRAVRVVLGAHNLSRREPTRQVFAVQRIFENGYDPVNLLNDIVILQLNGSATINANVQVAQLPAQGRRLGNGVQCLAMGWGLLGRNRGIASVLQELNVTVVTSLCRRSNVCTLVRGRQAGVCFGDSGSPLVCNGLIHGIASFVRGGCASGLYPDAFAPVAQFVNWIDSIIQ

T3: human neutrophil elastase (ELANE) (human, UniProt P08246 30-247)
T3 construct: Native protein: in human PMN conditioned media in the co-immunoprecipitation, purified native ELANE (Abcam) in the enzyme and cleavage assays; also called human ELANE
T3 sequence: T2 chain

T4: C-terminal domain of CD95 (amino acids 157-320; C-CD95), P25445
T4 chain: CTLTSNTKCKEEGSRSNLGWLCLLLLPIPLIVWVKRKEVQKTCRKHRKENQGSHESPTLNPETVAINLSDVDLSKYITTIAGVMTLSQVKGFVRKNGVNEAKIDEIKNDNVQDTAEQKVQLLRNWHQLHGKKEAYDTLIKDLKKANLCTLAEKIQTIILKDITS

B1: cathepsin G (CTSG) (protein)
chain: IIGGRESRPHSRPYMAYLQIQSPAGQSRCGGFLVREDFVLTAAHCWGSNINVTLGAHNIQRRENTQQHITARRAIRHPQYNQRTIQNDIMLLQLSRRVRRNRNVNPVALPRAQEGLRPGTLCTVAGWGRVSMRRGTDTLREVQLRVQRDRQCLRIFGSYDPRRQICVGDRRERKAAFKGDSGGPLLCNNVAHGIVSYGKSSGVPPEVFTRVSSFLPWIRTTMRS
B2: murine neutrophil elastase (mELANE) (protein)
chain: IVGGRPARPHAWPFMASLQRRGGHFCGATLIARNFVMSAAHCVNGLNFRSVQVVLGAHDLRRQERTRQTFSVQRIFENGFDPSQLLNDIVIIQLNGSATINANVQVAQLPAQGQGVGDRTPCLAMGWGRLGTNRPSPSVLQELNVTVVTNMCRRRVNVCTLVPRRQAGICFGDSGGPLVCNNLVQGIDSFIRGGCGSGLYPDAFAPVAEFADWINSIIRSHNDHLLTHPKDREGRTN
B3: proteinase 3 (PRTN3) (protein)
chain: IVGGHEAQPHSRPYMASLQMRGNPGSHFCGGTLIHPSFVLTAAHCLRDIPQRLVNVVLGAHNVRTQEPTQQHFSVAQVFLNNYDAENKLNDVLLIQLSSPANLSASVATVQLPQQDQPVPHGTQCLAMGWGRVGAHDPPAQVLQELNVTVVTFFCRPHNICTFVPRRKAGICFGDSGGPLICDGIIQGIDSFVIWGCATRLFPDFFTRVALYVDWIRSTLR
B4: eosinophil cationic protein (ECP) (enzyme)
chain: RPPQFTRAQWFAIQHISLNPPRCTIAMRAINNYRWRCKNQNTFLRTTFANVVNVCGNQSIRCPHNRTLNNCHRSRFRVPLLHCDLINPGAQNISNCTYADRPGRRFYVVACDNRDPRDSPRYPVVPVHLDTTI
notes: also called ribonuclease 3
B5: human neutrophil elastase (ELANE) (protein)
chain: T2 chain

Columns and labels:
[1] = molecular target: T1, full length recombinant CD95 protein …
[2] = molecular target: T2, human neutrophil elastase (ELANE)
[3] = molecular target: T3, human neutrophil elastase (ELANE); assay: from the inventors' studies of ECP as allosteric activator of ELANE (chromogenic substrate kinetics, FIG. 7); method of the KD not stated
[4] = molecular target: T4, C-terminal domain of CD95 (amino acids …)
[5] = molecular target: alpha-1-anti-trypsin (A1AT), P01009
alpha-1-anti-trypsin (A1AT), P01009, sequence (P01009 whole entry, looked up): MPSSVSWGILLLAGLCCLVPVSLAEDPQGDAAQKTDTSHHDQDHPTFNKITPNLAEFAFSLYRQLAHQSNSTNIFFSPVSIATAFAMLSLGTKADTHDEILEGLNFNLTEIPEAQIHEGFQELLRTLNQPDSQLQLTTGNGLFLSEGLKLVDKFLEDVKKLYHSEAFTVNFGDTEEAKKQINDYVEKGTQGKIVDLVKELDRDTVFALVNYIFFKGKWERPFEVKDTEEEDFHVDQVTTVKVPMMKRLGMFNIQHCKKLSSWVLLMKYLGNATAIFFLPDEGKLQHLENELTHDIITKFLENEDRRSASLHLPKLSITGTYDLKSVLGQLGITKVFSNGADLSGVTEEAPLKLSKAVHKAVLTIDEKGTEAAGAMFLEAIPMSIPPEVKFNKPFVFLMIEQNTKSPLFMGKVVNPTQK

Binder	degradation of purified CD95 [1]	also measured
B1	cleaved purified CD95 with an identical degradation pattern to ELANE	–
B2	cleaved purified CD95 with an identical degradation pattern to ELANE	–
B3	cleaved purified CD95 with an identical degradation pattern to ELANE	–
B4	–	kcat of ELANE for its substrate (chromogenic substrate activity assay) [2]: increases kcat for its substrate by 12-fold without altering KM; Kd [3]: ~20 nM
B5	ELANE degrades the C-terminal domain of purified CD95	degradation by SDS-PAGE followed by coomassie blue staining [4]: ELANE preferentially cleaves the C-terminal domain of CD95; ELANE catalytic activity (chromogenic substrate assay) [5]: loss of ELANE catalytic activity was confirmed by a chromogenic substrate assay
